These results are taken from patent US6093549, “Huntingtin-associated protein-related assays” (The Johns Hopkins University, dated 2000).

The test has as its target GAL-4 binding domain vector alone (pPC97) (yeast, UniProt P04386). Nature of the test: yeast two-hybrid filter assay.

Description: A cDNA encoding the first 230 amino acids of huntingtin containing 44 glutamine repeats was ligated to the GAL-4 binding domain in plasmid vector pPC97 for yeast two hybrid screening with a rat brain cDNA library.
A cDNA construct containing the first 230 amino acids with 44 or 23 glutamine repeats was in-frame fused with the GAL4 DNA binding domain of plasmid pPC97[27].

B1: rHAP1-BR (rat huntingtin Associated Protein1 Binding Region), GAL-4 activation domain construct (other)
chain: LLEEENDHLREEASHLDNLEDKEQMLILECVEQFSEASQQMAELSEVLVLRLEGYERQQKEITQLQAEITKLQQRCQSYGAQTEKLQQQLASEKGVHPESLRAGSHMQDYGSRPRERQEDGKSHRQRSSMPAGSVTHYGYSVPLDALPSFPETLAEELRTSLRKFITDP
Regarding B1, the binding result is reported as “no binding”.
